The source of these data is paper PMC2864353 (Blood coagulation & fibrinolysis : an international journal …, 2010).

Like-named read-outs stand apart in the source and are kept apart here.

Common to all, as to test: SPR
(In general: In SPR one partner is held on a chip, and binding of the other changes the refractive index at the surface.)

For assay [1], the target named is T1, recombinant tissue factor containing transmembrane spanning domain (TF 1-248), relipidated.
T1 chain: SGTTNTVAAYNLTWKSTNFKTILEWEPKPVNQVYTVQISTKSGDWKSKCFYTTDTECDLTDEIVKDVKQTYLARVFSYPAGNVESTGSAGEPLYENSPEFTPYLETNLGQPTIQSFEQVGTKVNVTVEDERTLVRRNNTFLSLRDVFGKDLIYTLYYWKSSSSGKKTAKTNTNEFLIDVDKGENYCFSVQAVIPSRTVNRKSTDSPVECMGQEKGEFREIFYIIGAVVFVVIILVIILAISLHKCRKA

Assay [2] addresses soluble tissue factor (TF 1-219) (UniProt P13726 33-251).
For assay [3], the target named is T1, recombinant tissue factor containing ….

B1: Factor VIIa (enzyme)
chain 1: ANAFLEELRPGSLERECKEEQCSFEEAREIFKDAERTKLFWISYSDGDQCASSPCQNGGSCKDQLQSYICFCLPAFEGRNCETHKDDQLICVNENGGCEQYCSDHTGTKRSCRCHEGYSLLADGVSCTPTVEYPCGKIPILEKRNASKPQGR
chain 2: IVGGKVCPKGECPWQVLLLVNGAQLCGGTLINTIWVVSAAHCFDKIKNWRNLIAVLGEHDLSEHDGDEQSRRVAQVIIPSTYVPGTTNHDIALLRLHQPVVLTDHVVPLCLPERTFSERTLAFVRFSLVSGWGQLLDRGATALELMVLNVPRLMTQDCLQQSRKVGDSPNITEYMFCAGYSDGSKDSCKGDSGGPHATHYRGTWYLTGIVSWGQGCATVGHFGVYTRVSQYIEWLQKLMRSEPRPGVLLRAPFP
Regarding B1, in assay [1], the Kd came to 0.0474 nM, the koff was determined as 0.000233 s⁻¹ and the kon worked out at 2.58e+06 M⁻¹ s⁻¹. In assay [2], this molecule yielded a Kd of 11.6 nM, a koff of 0.00592 s⁻¹ and an association rate constant (kon) of 475000 M⁻¹ s⁻¹. In assay [3], the Kd is 0.0457 nM, the off-rate (koff) is 0.000234 s⁻¹ and the kon is 2.73e+06 M⁻¹ s⁻¹.

Usually Kd stands for the equilibrium constant for the complex coming apart. What is called koff is the rate constant with which the complex falls apart. In general, kon refers to a measure of how fast the partners come together.
